Test results published in US20050124539A1 (Takeda / Millennium, published 2005).
No end group written: not given here. *: point of attachment. Propanoyl(3-indol-3-yl) = O=C(CCc1c[nH]c2ccccc12)*

B1: human homologue of GPR8 ligand peptide consisting of 30 residues (peptide)
peptide: WYKHVASPRYHTVGRAAGLLMGLRRSPYLW
notes: also called hGPR8L(1-30); Human GPR8 ligand (1-30)

target: T1, Human GPR7 (human, UniProt P48145 1-328); assay: cell-based or functional assay
T1 sequence: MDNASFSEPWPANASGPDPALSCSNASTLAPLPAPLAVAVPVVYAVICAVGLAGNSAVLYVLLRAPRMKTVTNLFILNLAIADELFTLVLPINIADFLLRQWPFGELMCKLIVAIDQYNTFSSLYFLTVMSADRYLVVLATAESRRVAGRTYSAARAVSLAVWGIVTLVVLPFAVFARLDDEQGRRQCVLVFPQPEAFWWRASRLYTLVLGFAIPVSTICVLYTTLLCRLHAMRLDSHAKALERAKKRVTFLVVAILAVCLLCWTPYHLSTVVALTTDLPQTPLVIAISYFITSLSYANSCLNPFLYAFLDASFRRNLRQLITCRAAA

Binder	inhibition of intracellular cAMP production (IC50) [nM]
B1	0.13

target: T2, Human GPR8 receptor protein (human, UniProt P48146 1-333); assay: cell-based or functional assay
T2 sequence (P48146 whole entry): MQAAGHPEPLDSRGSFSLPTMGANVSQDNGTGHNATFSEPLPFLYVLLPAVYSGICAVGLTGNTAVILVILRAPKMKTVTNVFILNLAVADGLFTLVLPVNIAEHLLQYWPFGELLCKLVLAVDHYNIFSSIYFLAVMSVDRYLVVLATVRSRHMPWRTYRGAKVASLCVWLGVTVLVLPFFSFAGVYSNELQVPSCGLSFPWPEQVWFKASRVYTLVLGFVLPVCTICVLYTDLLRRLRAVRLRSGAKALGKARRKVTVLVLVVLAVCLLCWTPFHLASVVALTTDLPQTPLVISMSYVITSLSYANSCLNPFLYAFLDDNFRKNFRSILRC

Binder	Promoting activity to GTPγS binding (EC50 nM) [nM]
XYKHVASPRYHTVGRAAGLLMGL (D-Trp at position 1, also called [D-Trp^1]-hGPR8L(1-23)) [[D-Trp^1]-Human GPR8 ligand (1-23)]	7.1
YKHVASPRYHTVGRAAGLLMGL (also called hGPR8L(2-23)) [Human GPR8 ligand (2-23)]	3900
Ac-YKHVASPRYHTVGRAAGLLMGL (also called Ac-hGPR8L(2-23)) [[N-Acetyl-Tyr^2]-Human GPR8 ligand (2-23)]	7200
{Propanoyl(3-indol-3-yl)}-YKHVASPRYHTVGRAAGLLMGL (also called IndPr-hGPR8L(2-23)) [[N-3-Indolepropanoyl-Tyr^2]-human GPR8 ligand (2-23)]	5
HVASPRYHTVGRAAGLLMGL (also called hGPR8L(4-23)) [Human GPR8 ligand (4-23)]	6700
RYHTVGRAAGLLMGL (also called hGPR8L(9-23)) [Human GPR8 ligand (9-23)]	4200
WYKHVASPRYHTVGRAAGLL (also called hGPR8L(1-20)) [Human GPR8 ligand (1-20)]	0.86

target: T1, Human GPR7; assay: cell-based or functional assay; remark: another data set of the same source

Binder	Promoting activity to GTPγS binding (EC50 nM) [nM]
XYKHVASPRYHTVGRAAGLLMGL (D-Trp at position 1, also called [D-Trp^1]-hGPR8L(1-23)) [[D-Trp^1]-Human GPR8 ligand (1-23)]	2.3
YKHVASPRYHTVGRAAGLLMGL (also called hGPR8L(2-23)) [Human GPR8 ligand (2-23)]	7410
Ac-YKHVASPRYHTVGRAAGLLMGL (also called Ac-hGPR8L(2-23)) [[N-Acetyl-Tyr^2]-Human GPR8 ligand (2-23)]	7000
{Propanoyl(3-indol-3-yl)}-YKHVASPRYHTVGRAAGLLMGL (also called IndPr-hGPR8L(2-23)) [[N-3-Indolepropanoyl-Tyr^2]-human GPR8 ligand (2-23)]	0.85
HVASPRYHTVGRAAGLLMGL (also called hGPR8L(4-23)) [Human GPR8 ligand (4-23)]	> 10000
RYHTVGRAAGLLMGL (also called hGPR8L(9-23)) [Human GPR8 ligand (9-23)]	> 10000
WYKHVASPRYHTVGRAAGLL (also called hGPR8L(1-20)) [Human GPR8 ligand (1-20)]	0.88
B1	0.67

target: T2, Human GPR8 receptor protein; assay: competition with [125I-Tyr10]-hGPR8L(1-23), membrane fraction of GPR8 expressing CHO cells
Procedure: Cell membrane fraction prepared from Human GPR8 expressing cells was diluted to various concentration with assay buffer (25 mM Tris-HCl, 5 mM EDTA, 0.05% CHAPS (3-[(3-Cholamidopropyl) Dimethyl-Ammonio]-1-Propanesulfonate), 0.1% BSA, 0.25 mM PMSF, 1 μg/ml Pepstatin, 20 μg/ml Leupeptin, pH7.4), and 200 μl each of the diluent was dispensed into polypropilene test tube (Falcon 2053). In order to determine an amount of maximum binding (TB), […] of DMSO and 2 μl of 7 nM [¹²⁵I-Tyr²]-hGPR8L(1-23) or [¹²⁵I-Tyr¹⁰]-hGPR8L(1-23) were added to the membrane fraction solution. Further, in order to determine a non-specific binding (NSB), 2 μt of 100 μM hGPR8L(1-23)/DMSO solution and 2 μl of 7 nM [¹²⁵I]-Tyr²]-hGPR8L(1-23) or [¹²⁵I-Tyr¹⁰]-hGPR8L(1-23) were added to the membrane fraction solution. The reaction was done at 25° C. for 60 minutes, and the reaction mixture was filtered by suction filtration using Whatman glassfilter (GF-F) treated with polyethyleneimine. After filtration, a radioactivity remaining on the filter was counted using γ-counter, and an amount of specific binding (SB) was estimated by subtracting an amount of non-specific binding from an amount of maximum binding. Since the specific binding in the case where [¹²⁵I-Tyr¹⁰]-hGPR8L(1-23) was used, was twice as much as that in the case where [¹²⁵1-Tyr²]-hGPR8L(1-23) was used, in practice, [¹²⁵I-Tyr¹⁰]-hGPR8L(1-23) was used in the assay. When the concentration of membrane fraction was changed, a specific binding of [¹²⁵I-Tyr¹⁰]-hGPR8L(1-23) was perceived depending on the concentration of membrane fraction.
A receptor binding activity of human- and porcine-homologue derivatives of GPR8 ligand peptide, wherein the synthesis method has been described in the specification, was measured using a membrane fraction of GPR8 expressing CHO cells and [¹²⁵-Tyr¹⁰]-hGPR8L(1-23) by the method described in Reference Example 43.

Binder	IC50 [nM]
XYKHVASPRYHTVGRAAGLLMGL (D-Trp at position 1, also called [D-Trp^1]-hGPR8L(1-23)) [[D-Trp^1]-Human GPR8 ligand (1-23)]	0.82
YKHVASPRYHTVGRAAGLLMGL (also called hGPR8L(2-23)) [Human GPR8 ligand (2-23)]	160
Ac-YKHVASPRYHTVGRAAGLLMGL (also called Ac-hGPR8L(2-23)) [[N-Acetyl-Tyr^2]-Human GPR8 ligand (2-23)]	420
{Propanoyl(3-indol-3-yl)}-YKHVASPRYHTVGRAAGLLMGL (also called IndPr-hGPR8L(2-23)) [[N-3-Indolepropanoyl-Tyr^2]-human GPR8 ligand (2-23)]	0.28
HVASPRYHTVGRAAGLLMGL (also called hGPR8L(4-23)) [Human GPR8 ligand (4-23)]	1400
RYHTVGRAAGLLMGL (also called hGPR8L(9-23)) [Human GPR8 ligand (9-23)]	1300
WYKHVASPRYHTVGRAAGLL (also called hGPR8L(1-20)) [Human GPR8 ligand (1-20)]	0.2

target: T1, Human GPR7; assay: competition with [125I-Tyr10]-hGPR8L(1-23), membrane fraction of GPR7 expressing CHO cells

Binder	IC50 [nM]
XYKHVASPRYHTVGRAAGLLMGL (D-Trp at position 1, also called [D-Trp^1]-hGPR8L(1-23)) [[D-Trp^1]-Human GPR8 ligand (1-23)]	0.63
YKHVASPRYHTVGRAAGLLMGL (also called hGPR8L(2-23)) [Human GPR8 ligand (2-23)]	140
Ac-YKHVASPRYHTVGRAAGLLMGL (also called Ac-hGPR8L(2-23)) [[N-Acetyl-Tyr^2]-Human GPR8 ligand (2-23)]	570
{Propanoyl(3-indol-3-yl)}-YKHVASPRYHTVGRAAGLLMGL (also called IndPr-hGPR8L(2-23)) [[N-3-Indolepropanoyl-Tyr^2]-human GPR8 ligand (2-23)]	0.044
HVASPRYHTVGRAAGLLMGL (also called hGPR8L(4-23)) [Human GPR8 ligand (4-23)]	1200
RYHTVGRAAGLLMGL (also called hGPR8L(9-23)) [Human GPR8 ligand (9-23)]	2200
WYKHVASPRYHTVGRAAGLL (also called hGPR8L(1-20)) [Human GPR8 ligand (1-20)]	0.094
B1	0.025

target: T3, TGR26, rat-derived G protein-coupled receptor protein (rat, UniProt Q56UD9 1-329); assay: competition with [125I-Tyr10]-hGPR8L(1-23), membrane fraction of TGR26 expressing CHO cells
T3 construct: Expressed in CHO dhfr- cells from pAK-rGPR7; also called rat TGR26; TGR26 receptor
T3 sequence: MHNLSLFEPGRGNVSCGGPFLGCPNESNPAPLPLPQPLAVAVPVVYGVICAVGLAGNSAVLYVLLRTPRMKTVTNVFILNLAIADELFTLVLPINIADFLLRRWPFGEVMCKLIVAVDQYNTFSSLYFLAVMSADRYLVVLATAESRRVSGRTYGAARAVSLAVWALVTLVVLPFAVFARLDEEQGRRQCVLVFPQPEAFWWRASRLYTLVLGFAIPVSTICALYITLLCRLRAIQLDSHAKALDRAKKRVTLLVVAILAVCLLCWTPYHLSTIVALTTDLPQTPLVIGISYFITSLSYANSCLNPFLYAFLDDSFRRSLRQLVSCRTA
Procedure: Cell membrane fraction prepared from TGR26 expressing cells was diluted to various concentration with assay buffer (25 mM Tris-HCl, 5 mM EDTA, 0.05% CHAPS (3-[(3-Cholamidopropyl) Dimethyl-Ammonio]-1-Propanesulfonate), 0.1% BSA, 0.5 mM PMSF, 1 μg/ml Pepstatin, 20 μg/ml Leupeptin, 4 μg/ml E-64, pH7.4), and 200 μl each of the diluent was dispensed into polypropilene test tube (Falcon 2053). In order to determine an amount of maximum binding, 2 μl of DMSO and 2 μl of 7 nM [¹²⁵-Tyr¹⁰]-hGPR8L(1-23) were added to the membrane fraction solution. Further, in order to determine a non-specific binding, 2 μl of 100 μM hGPR8L(1-23)/DMSO solution and 2 μl of 7 nM [¹²⁵I]-Tyr¹⁰]-hGPR8L(1-23) were added to the membrane fraction solution. The reaction was done at 25° C. for 75 minutes, and the reaction mixture was filtered by suction filtration using Whatman glassfilter (GF-F) treated with polyethyleneimine. In addition, the filter was washed twice with 1.5 ml of washing buffer (25 mM Tris-HCl, 5 mM EDTA, 0.05% CHAPS, 0.1% BSA, pH7.4). After filtration, a radioactivity remaining on the filter was counted using γ-counter, and an amount of specific binding was estimated by subtracting an amount of non-specific binding from an amount of maximum binding.
A receptor binding activity of human- and porcine-homologue derivatives of GPR8 ligand peptide obtained in the reference examples was measured using a membrane fraction of TGR26 expressing CHO cells and [¹²⁵I-Tyr¹⁰]-hGPR8L(1-23) by the method described in Reference Example 73.

Binder	IC50 [nM]
XYKHVASPRYHTVGRAAGLLMGL (D-Trp at position 1, also called [D-Trp^1]-hGPR8L(1-23)) [[D-Trp^1]-Human GPR8 ligand (1-23)]	1.3
YKHVASPRYHTVGRAAGLLMGL (also called hGPR8L(2-23)) [Human GPR8 ligand (2-23)]	240
Ac-YKHVASPRYHTVGRAAGLLMGL (also called Ac-hGPR8L(2-23)) [[N-Acetyl-Tyr^2]-Human GPR8 ligand (2-23)]	570
{Propanoyl(3-indol-3-yl)}-YKHVASPRYHTVGRAAGLLMGL (also called IndPr-hGPR8L(2-23)) [[N-3-Indolepropanoyl-Tyr^2]-human GPR8 ligand (2-23)]	0.12
HVASPRYHTVGRAAGLLMGL (also called hGPR8L(4-23)) [Human GPR8 ligand (4-23)]	2000
RYHTVGRAAGLLMGL (also called hGPR8L(9-23)) [Human GPR8 ligand (9-23)]	2500
WYKHVASPRYHTVGRAAGLL (also called hGPR8L(1-20)) [Human GPR8 ligand (1-20)]	0.17
